Here are results for two substances from publication PMC10456876.

Assay [1] has as its target human telomeric nucleosome core particle (teloNCP), P68431;P62805;P04908;P06899. Kind of assay: EMSA. Particulars: point at 200 nM TRF1core; triplicate; parent: est. 100; read off a plot. (In general: Mobility shift assays separate free from complexed probe on a gel.)
Assay [2] addresses human telomeric nucleosome core particle (teloNCP) (human) (UniProt P68431). Kind of assay: cryo-EM structure; TRF1core-teloNCP complex from the glycerol gradient, cross-linked with 0.5 mM BS3; 2:1 complex at 2.7 Å, 4:1 complex at 6.7 Å (rigid-body docking).
Assay [3] shares this target. The description is as above. This is another data set of the same source.

Where two headings read alike, the source gives them in different places.

Chain of wild-type MBP-tagged TRF1core (TRF1-TIN2-TPP1) (Q9BSI4 whole entry, looked up): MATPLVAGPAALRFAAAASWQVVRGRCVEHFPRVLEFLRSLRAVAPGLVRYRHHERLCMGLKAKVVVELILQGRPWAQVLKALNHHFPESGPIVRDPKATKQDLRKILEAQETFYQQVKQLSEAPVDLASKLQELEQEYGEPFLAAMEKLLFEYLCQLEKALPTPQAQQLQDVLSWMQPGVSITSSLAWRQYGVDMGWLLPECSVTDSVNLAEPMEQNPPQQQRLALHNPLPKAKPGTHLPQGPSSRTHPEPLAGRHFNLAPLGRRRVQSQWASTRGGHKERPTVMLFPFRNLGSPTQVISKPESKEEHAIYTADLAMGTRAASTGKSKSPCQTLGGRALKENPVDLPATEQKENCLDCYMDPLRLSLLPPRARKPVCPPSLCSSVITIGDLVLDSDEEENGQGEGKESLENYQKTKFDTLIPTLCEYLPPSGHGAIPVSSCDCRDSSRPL
Chain of wild-type MBP-tagged TRF1core (TRF1-TIN2-TPP1) (P54274 whole entry, looked up, stated change not applied): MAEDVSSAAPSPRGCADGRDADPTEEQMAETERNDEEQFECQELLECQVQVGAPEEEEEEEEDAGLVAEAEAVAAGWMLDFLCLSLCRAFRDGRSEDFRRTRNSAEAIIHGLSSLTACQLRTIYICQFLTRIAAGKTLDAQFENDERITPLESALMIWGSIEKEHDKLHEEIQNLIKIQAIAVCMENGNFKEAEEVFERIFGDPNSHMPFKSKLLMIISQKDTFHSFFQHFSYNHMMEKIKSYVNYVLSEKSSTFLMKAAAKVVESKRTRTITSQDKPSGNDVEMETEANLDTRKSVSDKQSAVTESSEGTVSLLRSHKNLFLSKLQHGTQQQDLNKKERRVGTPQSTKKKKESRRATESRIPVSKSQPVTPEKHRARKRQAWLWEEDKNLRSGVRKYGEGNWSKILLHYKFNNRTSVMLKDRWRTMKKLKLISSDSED

As for “wild-type MBP-tagged TRF1core (TRF1-TIN2-TPP1) (from UniProt P54274;Q9BSI4) S434A; S435A; S437A”, the response in assay [1] was determined as 17 % Bound.
As for “shelterin TRF1-TIN2-TPP1 subcomplex (TRF1core), untagged (from UniProt P54274 1-439; Q9BSI4 1-451)”, the figures for the TRF1 Myb domains bound per teloNCP in assay [2] and in assay [3] were 2 and 4, respectively.
